From article PMC12036983

Target: hEAAT3-X (Hg2+-crosslinked Cys-mini K269C/W441C hEAAT3g, human excitatory amino acid transporter 3) (human) (UniProt P43005)
Assay: cryo-EM structure; hEAAT3-X at ~5 mg/mL in 20 mM HEPES-Tris pH 7.4, 200 mM NaCl, 0.01% GDN with 10 mM L-Asp, D-Asp, R-2HG or L-Cys; maps refined with C3 symmetry

## hEAAT3-X (Hg2+-crosslinked Cys-mini K269C/W441C hEAAT3g, human excitatory amino acid transporter 3) (from UniProt P43005 1-524)
  stoichiometry N: 3
